Results taken from article PMC6155126.

Assays:
FLAG-Pol λ-WT (human) = FLAG-Pol λ-WT (human) (UniProt Q9UGP5)
FLAG-PAXX (human) = FLAG-PAXX (human) (UniProt Q9BUH6); assay: affinity purification with mass spectrometry; anti-FLAG IP of FLAG-PAXX, -XLF, -XRCC4, -DNA-PKcs (stable) or FLAG-Pol λ (transient) from nucleoplasmic and benzonase-treated soluble chromatin fractions of HEK293F cells; FLAG peptide elution; LC-MS/MS

Chain of FLAG-Pol λ-WT (human) (Q9UGP5 whole entry): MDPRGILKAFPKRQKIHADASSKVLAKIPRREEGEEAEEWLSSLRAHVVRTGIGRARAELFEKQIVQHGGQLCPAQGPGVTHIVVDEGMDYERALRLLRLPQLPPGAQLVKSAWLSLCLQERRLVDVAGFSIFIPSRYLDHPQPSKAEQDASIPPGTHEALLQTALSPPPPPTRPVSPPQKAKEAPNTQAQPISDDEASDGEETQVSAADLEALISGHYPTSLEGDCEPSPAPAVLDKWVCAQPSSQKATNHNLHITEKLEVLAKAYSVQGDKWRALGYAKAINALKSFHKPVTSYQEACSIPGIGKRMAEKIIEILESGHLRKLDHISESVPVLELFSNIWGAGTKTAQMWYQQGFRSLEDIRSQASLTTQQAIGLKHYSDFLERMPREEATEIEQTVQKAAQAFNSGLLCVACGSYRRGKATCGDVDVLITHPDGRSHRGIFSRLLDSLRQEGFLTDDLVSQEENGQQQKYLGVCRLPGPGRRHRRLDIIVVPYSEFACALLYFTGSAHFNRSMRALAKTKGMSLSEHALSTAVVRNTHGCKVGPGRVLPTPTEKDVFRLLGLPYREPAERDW

| Substance | Pol λ-dependent gap filling synthesis on a 5nt-gapped dsDNA (33-mer), stimulation by added protein over a concentration series (FLAG-Pol λ-WT (human)) [fold] | stoichiometry N (FLAG-PAXX (human)) |
| --- | --- | --- |
| FLAG-PAXX (from UniProt Q9BUH6 1-204) (natural protein) | < 10 | – |
| DNA-PK holoenzyme (endogenous) (from UniProt P78527 1-4128; P12956 1-609; P13010 1-732) (complex) | – | 1 to 1.5 |
